These results are taken from patent publication US20220135655A1 (Dana-Farber, published 2022).

To fix the notation:
B1: 4C4 (scFv)
scFv: QVQLVQSGAEVKKPGSSVKVSCKASGGTFSSYAISWVRQAPGQGLEWMGGISPMFGTANYAQKFQGRVTITADKSTSTAYMELSSLRSEDTAVYYCAREGGYSPGGVDFDYWGQGTLVTVSSGGGSGGGSGGGSGGGSNFMLTQPHSVSESPGKTVTISCTRSSGSIASTYVQWYRQRPGSAPTTVIYEDHQRPSGVPDRFSGSLDSSSNSASLTISGLRTEDAATYYCQSFDASTLVFGGGTKLTVL
B2: 9H3 (scFv)
scFv: QVQLVQSGAEVKKPGSSVKVSCKASGGIFSSYAISWVRQAPGQGLEWMGGISPIFGTANYAQKFQGRVTITADESTNTAYMELSSLRSEDTAVYYCARSGGYYDYGVGYDQWGQGTLVTVSSGGGSGGGSGGGSGGGSQPVLTQPPSASGTPGQRVTISCSGGRSNIGSNTVNWYQQLPGTAPKLLIYSNNHRPSGVPDRFSGSKSGNTASLTISGLQAEDEADYYCQSYDSSVVFGGGTKLTVL
B3: 6F3 (scFv)
scFv: QVQLVQSGAEVKKPGSSVKVSCKASGGPFSSYAISWVRQAPGQGLEWMGGISPMFGTANYAQKFQGRVTITADESTSTVYMELSSLRSEDTAVYYCARGYSYYPGGGGGRNFDYWGQGTLVTVSSGGGSGGGSGGGSGGGSLPVLTQPPSASGTPGQRVTISCSGSSSNIGSNTVNWYQQLPGTAPKLLIYSNNQRPSGVPDRFSGSKSGTSASLAISGLQSEGEADYYCAAWDDSLKGRVFGGGTKVTVL
B4: 5B9 (scFv)
scFv: QVQLVQSGAEVKKPGSSVKVSCKASGVTFSSYAISWVRQAPGQGLEWMGGISPMFGTANYAQKFQGRVTITADESTNTAYMELSSLRSEDTAVYYCARGRGYAPDALTNFDVWGQGTLVTVSSGGGSGGGSGGGSGGGSEIVLTQSPDSLAMSLGERATVNCKSSRSLFDSSDNKNYLAWYQKKPGQPPQLLIYWASTRQSGVPDRFSGSGSGTDFTLTISSLQAEDVAVYYCQQYFSSPPIFTFGPGTKVEIK
B5: 2F1 (scFv)
scFv: QVQLVQSGAEVKKPGSSVKVSCKASGGTFSSYAISWVRQAPGQGLEWMGGITPLFGTANYAQKFQGRVTITADDSTSTAYMELSSLRSEDTAVYYCARGPTLYSPPVFDVWGQGTLVTVSSGGGSGGGSGGGSGGGSQTVVTQEPSFSVSPGGTITLTCGLSSGSVSTTNYPSWYQQTPGRTPRTLIYNTNTRSSGVPDRFSGSILGNKAALTITGAQAGDESDYYCVLYMGRGIYVFGSGTKVSVL
B6: 2H4 (anti-H1CA0409) (scFv)
scFv: QVQLVQSGAEVKKPGSSVKVSCKASGVTFSSYAISWVRQAPGQGLEWMGGITPIFGTANYAQKFQGRVTITADQSTSTAYMELSSLRSEDTAVYYCARGGGVFDVWGQGTLVTVSSGGGSGGGSGGGSGGGSSYELTQPPSVSGAPRQRVTISCSGSSSNIGNNAVNWYQQLPGKAPKLLIYYDDMLPSGVSDRFSGSKSGSSASLAISGLQSEDEADYYCAAWDDSLSGPVFGGGTNLTVL
B7: 4F5 (scFv)
scFv: QVQLVQSGAEVKKPGSSVKVSCKASGVTFRSYAISWVRQAPGQGLEWMGGISGIFGTANYAQKFQGRVTITADESTSTAYMELSSLRSEDTAVYYCARSPAYYFGPNMDVWGQGTLVTVSSGGGSGGGSGGGSGGGSQSVLTQPPSVSGAPGQRVTISCTGSSSNIGAGYDVHWYQQLPGTVPKLIIYDNSNRPSGVPARFSGSKSGTSASLAISGLQSEDEAAYYCQSYDSSLSVVVFGGGTKLSVL
B8: 2G3 (scFv)
scFv: QVQLVQSGAEVKKPGSSVKVSCKASGGTFRSYAISWVRQAPGQGLEWMGGIMPIFGTANYAQKFQGRVTITADESTTTVYMELSSLRSEDTAVYYCARGAGVSAGPSWPFDVWGQGTLVTVSSGGGSGGGSGGGSGGGSQPGLTQPPSVSKDLRQTATLTCTGNSNNVGKQGATWLQQHQGHPPKLLSYRNNNRPSGISERFSASRSGDTASLTITGLQPEDEADYYCSAWDSSLSVWVFGGGTKLTVL
B9: 5A8 (scFv)
scFv: QVQLVQSGAEVKKPGSSVKVSCKASGGTFSSYAISWVRQAPGQGLEWMGGISPIFGTANYAQKFQGRVTITADESTSTVYMELSSLRSEDTAVYYCARGPGYHPAGASGQFFDLWGQGTLVTVSSGGGSGGGSGGGSGGGSSYELTQPPSVSKDLRQTATLTCTGNSNNVGNQGAAWLQQHQGHPPKLLSYRNNHRPSGISDRSSASRSGDTASLTITGLQPEDEADYYCSAWDSSLSAWVFGGGTKLTVL
B10: 2H3 (scFv)
scFv: QVQLVQSGAEVKKPGSSVKVSCKASGGPFSSYAISWVRQAPGQGLEWMGGIIPIFGTANYAQKFQGRVTITADESTSTAYMELSSLRSEDTAVYYCARGTDYSGYRGFDVWGQGTLVTVSSGGGSGGGSGGGSGGGSQTVVTQEPSFSVSPGGTVTLTCALSSGSVSSFNYASWYQQTPGQAPRTLISNTNTRSSGVPDRFSGSILGNKATLTITGAQADDESHYYCALYVGGGISVFGGGTKLTVL

The target of the experiment is A/California/04/2009 (H1CA0409) recombinant HA (influenza A virus A/California/04/2009, UniProt P26140 18-529). The experiment can be described thus: phage display panning (immunotube) against trimeric HA.
For B1, the binding result was “binds”. Under B2 stands “binds”. Under B3 stands “binds”.

For the molecule B4, the binding result was “binds”. Take B5: the binding result is reported as “binds”. B6: the binding result was “binds”. Under B7 stands “binds”; under B8, “binds”; under B9, “binds”.

For B10, the binding result is on record as “binds”.
